Measured values: US20110263454A1, “Methods of Identifying Functional Characteristics of Promoters, Transcription Modifying Proteins and Transcription Modulating Agents” (Salk Institute for Biological Studies, priority 2008, published 2011)

Legend:
[1] = tested on: mUCP1 promoter; test: NHR-promoter luciferase screen, mUCP1 promoter; format: cell-based, mouse; conditions: for Luc. act., normalized to lacZ / Normalized Luc. act., normalized to control: mUCP1 promoter reporter, co-transfected HR, with or without its ligand; for Normalized Luc. act., normalized to control: relative to control; for luciferase activity normalized to lacZ activity and to a control, mUCP!: mUCP! promoter-luciferase, CV-1 cells, NHR +/- ligand, control = 1.00
Method in brief: (§1)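 CV-1 cells were co-transfected with 50 ng NHR (homodimer or NHR/RXR heterodimer), 100 ng promoter-luciferase construct and 50 ng LacZ. Luciferase was normalized to LacZ and to a no-NHR/no-ligand control.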

[2] = tested on: mUCP2 promoter; test: NHR-promoter luciferase screen, mUCP2 promoter; format: cell-based, mouse; conditions: for Luc. act., normalized to lacZ / Normalized Luc. act., normalized to control: mUCP2 promoter reporter, co-transfected HR, with or without its ligand; for Normalized Luc. act., normalized to control: relative to control; for luciferase activity normalized to lacZ activity and to a control, mUCP2: mUCP2 promoter-luciferase, CV-1 cells, NHR +/- ligand, control = 1.00
Method in brief: as §1

[3] = tested on: hPOMC promoter; test: NHR-promoter luciferase screen, hPOMC promoter; format: cell-based, human; conditions: for Luc. act., normalized to lacZ / Normalized Luc. act., normalized to control: hPOMC promoter, HR/ligand component; for hPOMC promoter reporter activity: transcription factor +/- ligand, control = 1.00
Method in brief: as §1

[4] = tested on: hIRF7 promoter; test: NHR-promoter luciferase screen, hIRF7 promoter; format: cell-based, human; conditions: for Normalized Luc. act., normalized to control / Luc. act., normalized to lacZ: IRF7 promoter reporter; for Normalized Luc. act., normalized to control: HR without or with its ligand, relative to control; for Luc. act., normalized to lacZ: hormone receptor (HR) without or with its ligand; for hIRF7 promoter reporter activity: transcription factor +/- ligand, control = 1.00
Method in brief: as §1

[5] = tested on: hIFNg promoter; test: NHR-promoter luciferase screen, hIFNg promoter; format: cell-based, human; conditions: for Luc. act., normalized to lacZ / Normalized Luc. act., normalized to control: IFNg promoter, HR component without or with ligand; for hIFNg promoter reporter activity: transcription factor +/- ligand, control = 1.00
Method in brief: as §1

[6] = tested on: SREBP1c promoter; test: NHR-promoter luciferase screen, SREBP1c promoter; format: cell-based, mouse; conditions: for Luc. act., normalized to lacZ / Normalized Luc. act., normalized to control: SREBP1c promoter, HR component without or with ligand; for mSREBP1-c promoter reporter activity: transcription factor +/- ligand, control = 1.00
Method in brief: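 CV-1 cells co-transfected with 50 ng NHR (homodimer or NHR/RXR heterodimer), 100 ng promoter-luciferase and 50 ng LacZ. Luciferase read at 48 h, normalised to LacZ and to a no-NHR/no-ligand control.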

| Molecule | Luc. act., normalized to lacZ [1] | Normalized Luc. act., normalized to control [1] | luciferase activity normalized to lacZ activity and to a control, mUCP! [1] | Luc. act., normalized to lacZ [2] | Normalized Luc. act., normalized to control [2] | luciferase activity normalized to lacZ activity and to a control, mUCP2 [2] | Luc. act., normalized to lacZ [3] | Normalized Luc. act., normalized to control [3] | hPOMC promoter reporter activity [3] | Normalized Luc. act., normalized to control [4] | Luc. act., normalized to lacZ [4] | hIRF7 promoter reporter activity [4] | Luc. act., normalized to lacZ [5] | Normalized Luc. act., normalized to control [5] | hIFNg promoter reporter activity [5] | Luc. act., normalized to lacZ [6] | Normalized Luc. act., normalized to control [6] | mSREBP1-c promoter reporter activity [6] |
| --- | --- | --- | --- | --- | --- | --- | --- | --- | --- | --- | --- | --- | --- | --- | --- | --- | --- | --- |
| RORb: RAR-related Orphan Receptor β (NR1F2), cDNA driver (protein, UniProt Q92753 1-470, looked up) Nuclear receptor ROR-beta: MCENQLKTKADATAQIEVIPCKICGDKSSGIHYGVITCEGCKGFFRRSQQNNASYSCPRQRNCLIDRTNRNRCQHCRLQKCLALGMSRDAVKFGRMSKKQRDSLYAEVQKHQQRLQEQRQQQSGEAEALARVYSSSISNGLSNLNNETSGTYANGHVIDLPKSEGYYNVDSGQPSPDQSGLDMTGIKQIKQEPIYDLTSVPNLFTYSSFNNGQLAPGITMTEIDRIAQNIIKSHLETCQYTMEELHQLAWQTHTYEEIKAYQSKSREALWQQCAIQITHAIQYVVEFAKRITGFMELCQNDQILLLKSGCLEVVLVRMCRAFNPLNNTVLFEGKYGGMQMFKALGSDDLVNEAFDFAKNLCSLQLTEEEIALFSSAVLISPDRAWLIEPRKVQKLQEKIYFALQHVIQKNHLDDETLAKLIAKIPTITAVCNLHGEKLQVFKQSHPEIVNTLFPPLYKELFNPDCATGCK | 3.8 | 0.9 | 0.86 | 176.2 | 1.6 | 1.60 | 2.2 | 0.5 | 0.52 | 1.6 | 40.9 | 1.55 | 22.2 | 1.4 | 1.40 | 442.5 | 1.4 | 1.37 |
| TR2: Testicular Orphan Nuclear Receptor 2 (NR2C1), cDNA driver (protein, UniProt P13056 1-603, looked up) Nuclear receptor subfamily 2 …: MATIEEIAHQIIEQQMGEIVTEQQTGQKIQIVTALDHNTQGKQFILTNHDGSTPSKVILARQDSTPGKVFLTTPDAAGVNQLFFTTPDLSAQHLQLLTDNSPDQGPNKVFDLCVVCGDKASGRHYGAVTCEGCKGFFKRSIRKNLVYSCRGSKDCIINKHHRNRCQYCRLQRCIAFGMKQDSVQCERKPIEVSREKSSNCAASTEKIYIRKDLRSPLTATPTFVTDSESTRSTGLLDSGMFMNIHPSGVKTESAVLMTSDKAESCQGDLSTLANVVTSLANLGKTKDLSQNSNEMSMIESLSNDDTSLCEFQEMQTNGDVSRAFDTLAKALNPGESTACQSSVAGMEGSVHLITGDSSINYTEKEGPLLSDSHVAFRLTMPSPMPEYLNVHYIGESASRLLFLSMHWALSIPSFQALGQENSISLVKAYWNELFTLGLAQCWQVMNVATILATFVNCLHNSLQQDKMSTERRKLLMEHIFKLQEFCNSMVKLCIDGYEYAYLKAIVLFSPDHPSLENMEQIEKFQEKAYVEFQDYITKTYPDDTYRLSRLLLRLPALRLMNATITEELFFKGLIGNIRIDSVIPHILKMEPADYNSQIIGHSI | 8.1 | 1.8 | 1.82 | 208.9 | 1.9 | 1.90 | 15.7 | 3.6 | 3.65 | 1.0 | 25.8 | 0.98 | 13.6 | 0.9 | 0.85 | 102.9 | 0.3 | 0.32 |
| HNF4g: Hepatocyte Nuclear Factor γ (NR2A2), cDNA driver (protein, UniProt Q14541 1-408, looked up) Hepatocyte nuclear factor …: MNTTDNGVNCLCAICGDRATGKHYGASSCDGCKGFFRRSIRKSHVYSCRFSRQCVVDKDKRNQCRYCRLRKCFRAGMKKEAVQNERDRISTRRSTFDGSNIPSINTLAQAEVRSRQISVSSPGSSTDINVKKIASIGDVCESMKQQLLVLVEWAKYIPAFCELPLDDQVALLRAHAGEHLLLGATKRSMMYKDILLLGNNYVIHRNSCEVEISRVANRVLDELVRPFQEIQIDDNEYACLKAIVFFDPDAKGLSDPVKIKNMRFQVQIGLEDYINDRQYDSRGRFGELLLLLPTLQSITWQMIEQIQFVKLFGMVKIDNLLQEMLLGGASNDGSHLHHPMHPHLSQDPLTGQTILLGPMSTLVHADQISTPETPLPSPPQGSGQEQYKIAANQASVISHQHLSKQKQL | 3.5 | 0.8 | 0.79 | 114.8 | 1.0 | 1.04 | 5.3 | 1.2 | 1.23 | 1.2 | 31.7 | 1.20 | 13.3 | 0.8 | 0.83 | 296.9 | 0.9 | 0.92 |
| RXRb: Retinoic X Receptor β (NR2B2), cDNA driver (protein, UniProt P28702 1-533, looked up) Retinoic acid receptor …: MSWAARPPFLPQRHAAGQCGPVGVRKEMHCGVASRWRRRRPWLDPAAAAAAAVAGGEQQTPEPEPGEAGRDGMGDSGRDSRSPDSSSPNPLPQGVPPPSPPGPPLPPSTAPSLGGSGAPPPPPMPPPPLGSPFPVISSSMGSPGLPPPAPPGFSGPVSSPQINSTVSLPGGGSGPPEDVKPPVLGVRGLHCPPPPGGPGAGKRLCAICGDRSSGKHYGVYSCEGCKGFFKRTIRKDLTYSCRDNKDCTVDKRQRNRCQYCRYQKCLATGMKREAVQEERQRGKDKDGDGEGAGGAPEEMPVDRILEAELAVEQKSDQGVEGPGGTGGSGSSPNDPVTNICQAADKQLFTLVEWAKRIPHFSSLPLDDQVILLRAGWNELLIASFSHRSIDVRDGILLATGLHVHRNSAHSAGVGAIFDRVLTELVSKMRDMRMDKTELGCLRAIILFNPDAKGLSNPSEVEVLREKVYASLETYCKQKYPEQQGRFAKLLLRLPALRSIGLKCLEHLFFFKLIGDTPIDTFLMEMLEAPHQLA | 0.9 | 0.2 | 0.21 | 87.7 | 0.8 | 0.80 |  | 0.0 | 0.00 | 0.3 | 8.9 | 0.34 | 20.0 | 1.3 | 1.26 | 544.4 | 1.7 | 1.69 |
| RXRg: Retinoic X Receptor γ (NR2B3), cDNA driver (protein, UniProt P48443 1-463, looked up) Retinoic acid receptor …: MYGNYSHFMKFPAGYGGSPGHTGSTSMSPSAALSTGKPMDSHPSYTDTPVSAPRTLSAVGTPLNALGSPYRVITSAMGPPSGALAAPPGINLVAPPSSQLNVVNSVSSSEDIKPLPGLPGIGNMNYPSTSPGSLVKHICAICGDRSSGKHYGVYSCEGCKGFFKRTIRKDLIYTCRDNKDCLIDKRQRNRCQYCRYQKCLVMGMKREAVQEERQRSRERAESEAECATSGHEDMPVERILEAELAVEPKTESYGDMNMENSTNDPVTNICHAADKQLFTLVEWAKRIPHFSDLTLEDQVILLRAGWNELLIASFSHRSVSVQDGILLATGLHVHRSSAHSAGVGSIFDRVLTELVSKMKDMQMDKSELGCLRAIVLFNPDAKGLSNPSEVETLREKVYATLEAYTKQKYPEQPGRFAKLLLRLPALRSIGLKCLEHLFFFKLIGDTPIDTFLMEMLETPLQIT | 2.5 | 0.6 | 0.55 | 144.4 | 1.3 | 1.31 | 2.5 | 0.6 | 0.58 | 1.0 | 27.4 | 1.04 | 15.2 | 1.0 | 0.96 | 999.7 | 3.1 | 3.10 |
